Experimental data as given in the nanobody polyreactivity screen of Harvey et al. (2022).

experiment: yeast display, Sf9 membrane polyspecificity reagent, FACS + sequencing; frameworks hold sequencing errors
Summary of the method: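 Sorting gates, low and high (top ~1%), were placed on anti-HA fluorescence to track expression and on streptavidin fluorescence to track reagent binding. A clone's polyreactivity label is taken from the gate it came out of. The reagent was 10% biotinylated, detergent-solubilized Sf9 membrane, applied for 1 hour at 4 °C to galactose-induced yeast display cells.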

Sequence | polyreactivity (PSR sort gate)
QIQLVESGGGLVQAGSSLRLSCAASGRTFNTYAMGGYRPAPGNERELVAAITYNGGSTYYADSVKGRFTISRDNAKTTVYLQMNSLKPEYTAVYDCNVRLRTRYRKYDYWGQGTQVTVSS | high polyreactivity
QLHLVESGGGLVQAGGSLRLSCAASGRIFGVYAMGWYRQAPGKERELVASITWRGGSTYYADSVKGRFTISRDNAKNTVYLQMNSLKPEDTAVYYCAAAYWYAYEYWGQGTQVTVSS | high polyreactivity
QLKLEESGGGLVQAGGSLRLSCAASGFIFSYNAMGWYRQAPGKERELDAAISSIGSGTYYADSVKGRFTISRDNAKYTVYLQMNSLKPEDTAVYYCAKYLRPRIGSRYYYWGQGTQVTVSS | high polyreactivity
QLQHVESGGGLVQAGGSLRLSCAASGSTFYRNAKGWSRQAPGKEREFVADITLGGGSTYYADSVKGRFTISRDHAKNTVYLQMKSLKPEDTAVYFCAVDYWQLNYDYWGQGTQVTVSS | low polyreactivity
QLQHVESGVGIVQAGRSLRLSCAASGRTFSHYAMGWYRQAPGKERELVAAIRWRGGSTYYADSVKGRFTISRDNAKNTVYLQMNSRKPEDTAVSYCAAVALYIWTHPSDYWGLGTQVTVSS | high polyreactivity
QLQLEDSAGGLVQAGGSLRLSFAASGFIFDPNAIGWYRQAPAKEREFVAAIRTSGGSTYYADSVKGRFTISRDNAKNTVYLQMNSLKPEDPAVYYCAAKGRYADWSGYGYWGQGTQVTVSS | high polyreactivity
QLQLEESVGGLVQAGVSLRLSCAASGRTFRRYAMGSDRPAPAKERELVATIRSGDNTNYADSVKGRFTISRDNAKNTFYLQMKSLKPEDTAVYYCNRSPKSGQVTYLYSVNAHYDYWGQGTQVTVSS | low polyreactivity
QLQLGESAGGLVQAGGSLRLSCAASGSIFGLNAIGWYIQAPGKERELVAAISSGGSTYYADSVKGRFTISRDNAKNTVYLQMNSLKPEDTAVYYCNAYFQYYDYWGLGTQVTVSS | low polyreactivity
QLQLGESGGGLVQAAGSRRLSCAASGRTLCYYAMGWYSQAPGQDRELVAAITWTGGRTYYADSVKGRFTISRDNPKNSVYLQMNTLKPDDTAVDYCNAVYSPRYYVGGYDYWGQGTQVTVSS | high polyreactivity
QLQLQESGGGLVQAGVCLSCTASGTIFGQGDMGWYRQAPGKERELVATINDGASTYYADSVKGRFTISRDKAKNTVYLQKNSLKPDDNAVYYCAVFTDITTYFGYWGQGTQVTVSS | low polyreactivity
QLQLQESGGGLVQGGGSLRLSCAASGSIYRSWYMGWYRQAPGKERELVASMTEGATTNYAYSVKAALPLAAITRNPVYLQMDSMKPEDTAVYYRAASFGSTYDLVYWGKGTQVTVSS | high polyreactivity
QLQLVDSGGGLVKAGGSLRLSCAASGRTFYRYAMGWYRKAPGKERELVAAINFSTGSTYYADSVKGRFTISRDNAKNTVYLQMNSLKPEDTAVYYCAVPYGSYVGYDYWGQGTQVTVSS | low polyreactivity
QLQLVDSGGGLVQAGGSLRLSCADSGRTYGAYTMGWYRKAPGKERELVAAINWSGGDTYYADSVKVRFTISRDNAKNTVYLQMNRLKPEDTAVYYCNAEPRYGTYDYWGQGTQVTVSS | low polyreactivity
QLQLVDSGGGVVQAGGSLRLSCAASGSTFSRYAMGWYRQAPGKEMELVAAISTRGGSTRYADSVKGRFTISRDNAKNTVYLQMYCRKPEDTAVYYGAALGQGRTSATSFVDYEYWGQGTQVTVSS | high polyreactivity
QLQLVDSGGGVVQAGGSLRLSCAASGSTYAQYVMGWYRPATGKEKELVAAISLSGGSTYYAASVKGRFTISRDNAKNTVYLQMNSLKPVDTAVYYCSARGYGPGLYSSRQNEYYYWGQGTQVTVSS | high polyreactivity
QLQLVDSGRGLVQAGGSLRLSSAASGSIFVTNGMGWYRQAPGKERELVAVISWGGGNTYYADSVKGRFTISRDNAKNTVYLQMNNLKPEDTAVYYCAVELYWDYYFTYDYWGQGTQVTVSS | low polyreactivity
QLQLVESAGGLVQAGGSLRLSCAASASTFGSYAMGWYRQATGKETELDASNTSAGSTNYADSVKGRFTISRDNAKNTVYLQMNSLKPVDTEVYYCNDVRYYSYQYVPEVTHRYGFWGQGTQVTVSS | high polyreactivity
QLQLVESAVGLDQAVDILRLSSAASGFIFPGNMGWYRKAPGKETELVAAISWSGGSTRYADSVKGRFTISRDNAKNTVYLQMNSLKPEDTAVYYCAASLSGKRFNKRYYWGQGTQVTVSS | high polyreactivity
QLQLVESGGALVQAGGSLRFSCAASARTYGKNAMGWYRQAPGKERELDAAITWSGSSTYYADSVKGRFTISRHNAKNTVYLQMNSLKAEDTAVYYCAKEDWQLDYTVTWRKMDSWGQVTQVTVSS | low polyreactivity
QLQLVESGGGLDQAGVSLRLSCAASGFIFRNYAIGSYRQAPGNESELVAAITRSGTSTYYADSVKGRFSISRDNAKNTVYLQMNSLKPEDTAVYYCNTRYWLYYHRFDYWGQGTQVTVSS | high polyreactivity
QLQLVESGGGLLQAGGSLRLSCAAPGSTFAPNTMGWNRQPPGKARELVARITSSDGSTSYADSVKGRFTISRDNAKNTVYLQMNSLKPEDTAVYYCAAQYSYSMDYWGQGTQVTVSS | low polyreactivity

Sequence | polyreactivity (PSR sort gate)
QLQLVESGGGLVKAGGSLRLSCAASGRTLPVYAMGWYRQAPGKERELVAAIRWRGGRTYYADSVKGRFTISRDNAKNTVYLQMNSLKPEDTAVYYCAATTNTDRDYWGQGTQVTVSS | high polyreactivity
QLQLVESGGGLVQAGGRLRLSCAASARILSSYAMGSYRQAPGKERELVARISYSGGRTYYADSVKGRFTISRDNAKNTVYLQMNSLKPEDTAVYYCAAVSRVHFSYSYDYWGQGTEVTVSS | high polyreactivity
QLQLVESGGGLVQAGGRLRLSCAASGFIFWSYAMGWYRQAPGKERELVAAISARGGSTYYADSVKGRFTISRDNSKNTVYLQMNSLKPEDTAVYYCAAPRASGYYWGKGTQVTVSS | high polyreactivity
QLQLVESGGGLVQAGGSLRLSCAAAGSTFRLYAMGWYRPAPGKERKLVAAISGRGDRTYYADSVKGRFTISRDNAKNAVYLQMISLKPEDTAVYSCAAKSGFIPYDYWGQGTQVTVSS | high polyreactivity
QLQLVESGGGLVQAGGSLRLSCAASGFIFETYAMGCYIQAPGKERELVAAISRGASTYYADSVKGRFTISRDNAKNTVYLQMNSLKPEYTAVYYCAAKRLSWHRYGYWGQGTQVTVSS | low polyreactivity
QLQLVESGGGLVQAGGSLRLSCAASGFTFDSYAMGWYRQAPGKERELVAAITWDGGSTYYADSVKGRFTISRDNAKNTVYLQMNSLKPEDTAVYYCAADFGTISIDVYSWMDYWGQGTQVTVSS | low polyreactivity
QLQLVESGGGLVQAGGSLRLSCAASGFTFKYNARGWYSQAPGKARELVASISSGSTTYADSVKGRFTISRDNAKNTVYLQINSLKPEDTAVYYCAASVSRGKRFRYGYVFKMDHWGQGTQVTVSS | low polyreactivity
QLQLVESGGGLVQAGGSLRLSCAASGFTIRRYAMGCYRQAPGKERELVAAITWSAGSTYYADSVKGRFTISRDNAKNTVYLQMNSLKPEDTAVYYCAARWTRWGADSGYYWGKGTQVTVSS | high polyreactivity
QLQLVESGGGLVQAGGSLRLSCAASGISFSSYTMGWYRQAHGKERELVAAITWRGGRTYYADSVKGRFKISRDNAKNTVFLQMHSLKTEDTSVFYCAARDVAGYSTRFYYWGQGTQVTVSS | high polyreactivity
QLQLVESGGGLVQAGGSLRLSCAASGLIFTYYAMGWYRQAPGKERELVAAISGRGGSTYYADSVKGRFTISRDSAMKTVYLQMNSLNPEDTAVYYCAAVRWAGYVSDYGYWGQGTQVTVSS | high polyreactivity
QLQLVESGGGLVQAGGSLRLSCAASGLTFYHYAMGWYRQAPGKERELVAAISTSGGSTYYADSVKGRFTVSRDNAKNTVYLQMNSLKPEDTAVYYCATERTYRYDFWGQGTQVTVSS | high polyreactivity
QLQLVESGGGLVQAGGSLRLSCAASGLTSPGNAMGWYRQAPGKEMELVAAISSGGNTYYADSVKGRFTISRDNAKNTVYLQMNSLKPEDTAVYYCNAGGGTNYGSGYWFGYYYWGQGSQVTVSS | low polyreactivity
QLQLVESGGGLVQAGGSLRLSCAASGNTFLLNAMGWYRQAPGKERELVAGIRWGAGRSYYADSVKGRFTISRDNAMNTVYVQMNSLKAEDTAVYSGAADPWSGSDYWGQGTQVTVSS | low polyreactivity
QLQLVESGGGLVQAGGSLRLSCAASGNTFYQYAMGWYRQAPGKERELVAGIRYNGGSTYYADSVKGRFTISRDNAKNTVDLQMNSLKPEDTAVYYCATKGYTGYAYRYGYWGQGTQVTVSS | high polyreactivity
QLQLVESGGGLVQAGGSLRLSCAASGRIFSPYAMGWYSQAPGTASELVARISWRGSRTYFADSVKRRFTISRDNAKNTVYLQMNSLKPEDTAVYYCNAVVYRKPLRRDYWGQGTQVTVSS | high polyreactivity
QLQLVESGGGLVQAGGSLRLSCAASGRIFSRYAMGWYRQATGKERELVAAINKSGGSTYYADSVKGRFTFSRDNAKNTVYLQMNSLKPEDTAVYYCNAVYYWYKGDYWGQGTLVTVSS | high polyreactivity
QLQLVESGGGLVQAGGSLRLSCAASGRIFVKYAMGWYRQAPGKERELVAAISNGASTNYADSVKGRFTISRDNAKNTVYLQMNSLKPEDTAVYYCAASFSRYYRKRYDYWGQGTQVTVSS | high polyreactivity
QLQLVESGGGLVQAGGSLRLSCAASGRTFRYNAMGWYRQAPGKERELVASISWRGGSTYYADSVKGRFTISRDNAKNTVYLQMNSLKPEDTAVYYCVADAAHSEYDYWGQGTQVTVSS | high polyreactivity
QLQLVESGGGLVQAGGSLRLSCAASGRTFYQYAMGWYRKAPGKERELVAAITTSGGSTYYADSVKGRFTISRDNAKNTVYLQMNSLKPEYTAVYYCAAPYTGYRERGSYKSDYWGQGTQVTVSS | low polyreactivity
QLQLVESGGGLVQAGGSLRLSCAASGRTLQWSTMGGYRQAPGKERELVAVISKSGGRTYYADSVKGRFTISRDNAKNTVYLQMNSLKPEDTAVYYCNTPHRSSSVRSYGYWGQGTQVTVSS | high polyreactivity
